In assay [1] the target is T1, CD3 (Cluster of Differentiation 3) on Jurkat cells and on pan T cells (human, UniProt P07766 23-207).
T1 construct: whole, on cells
Description: cell ELISA on Jurkat cells (CD3), OD450. On the technique in general: In an ELISA, binding on a coated surface is turned into a signal by an enzyme label.

Assay [2] has as its target T2, PD-1 (Programmed Cell Death Protein 1) on cells (UniProt Q15116 25-288).
T2 construct: whole, on cells
The assay can be described thus: flow cytometry on PD-1 transfected CHO-S cells, uPa-treated sample. On the technique in general: Flow cytometry measures light scatter and fluorescence of single cells or particles in a stream.

Assay [3] has as its target T1, CD3 (Cluster of Differentiation 3) on …. The assay can be described thus: cell ELISA on Jurkat cells (CD3), OD450; EC50 relative to v30421.
Assay [4] concerns the target T2, PD-1 (Programmed Cell Death Protein 1) …. The assay can be described thus: flow cytometry on PD-1 transfected CHO-S cells, MFI; # Bmax constrained (footnote prints: to value of v31929).
Assay [5] has the same target. Description: flow cytometry on PD-1 transfected CHO-S cells, MFI.
Assay [6] has the same target. The assay can be described thus: flow cytometry on PD-1 transfected CHO-S cells, MFI; reference sample.
Assay [7] shares this target. Description: flow cytometry on PD-1 transfected CHO-S cells (direct binding; the filing prints IC50).
Assay [8] has as its target T1, CD3 (Cluster of Differentiation 3) on …. The assay can be described thus: cell ELISA on Jurkat cells (CD3), OD450. The source holds these as a separate data set.
For assay [9] the target is unchanged. The assay can be described thus: cell ELISA on CD3-bearing Jurkat cells, sample without uPa.
Assay [10] has the same target. Description: cell ELISA on Jurkat cells (CD3), OD450; EC50 relative to v30421. The source holds these as a separate data set.
Assay [11] has the same target. Description: flow cytometry on pan T cells (CD3), MFI.
The target is the same in assay [12]. The assay can be described thus: flow cytometry on human pan T cells, uPa-treated sample.
Assay [13] deals with T3, PD-L1 (Programmed death-ligand 1) on cells (UniProt Q9NZQ7 19-290).
T3 construct: whole, on cells
The assay can be described thus: flow cytometry on PD-L1 transfected CHO-S cells, uPa-treated sample.

The target of assay [14] is T3, PD-L1 (Programmed death-ligand 1) on …. The assay can be described thus: flow cytometry on PD-L1 transfected CHO-S cells, MFI; # Bmax constrained to value of v31929.

Where two headings read alike, the source gives them in different places.

For orientation: EC50 means the midpoint of the concentration-response curve. A higher EC50 goes with weaker potency. One may read the IC50 as the concentration needed to halve the response being measured. Read a low IC50 as greater potency in that assay.

B1: Variant 30436 treated with uPa (+uPa): PD-1 moiety cleaved from the heavy chain, HA PD-L1 left on the light chain (bispecific antibody)
heavy: not shown
light: AFTVTVPKDLYVVEYGSNMTIECKFPVEKQLDLAALQVFWMMEDKNIIQFVHGEEDLKVQHSSYRQRARLLKDQLSLGNAALQITDVKLQDAGVYTCLIAYKGADYKRITVKVNAEAAAKEAAAKDIQMTQSPSSLSASVGDRVTMTCSASSSVSYMNWYQQKPGKAPKRWIYDSSKLASGVPARFSGSGSGTDYTLTISSLQPEDFATYYCQQWSRNPPTFGGGTKLQITRTVAAPSVFIFPPSDEQLKSGTASVVCLLNNFYPREAKVQWKVDNALQSGNSQESVTEQDSKDSTYSLSSTLTLSKADYEKHKVYACEVTHQGLSSPVTKSFNRGEC
chain: not shown
As for B1, the half-maximal effective concentration (EC50) in [1] was 6.2 nM; in [4] it was 67 nM. The “fold of the one sided mask control 31931” value in assay [2] amounted to 12 fold. The “Fold wrt WT” value in assay [3] was 5.1 fold.

B2: Variant 31931: Half-masked CD3 × Her2 Fab × scFv Fc, HA PD-L1 attached to LC (bispecific antibody, human IgG1, kappa, L234A L235A)
heavy: not shown
light: AFTVTVPKDLYVVEYGSNMTIECKFPVEKQLDLAALQVFWMMEDKNIIQFVHGEEDLKVQHSSYRQRARLLKDQLSLGNAALQITDVKLQDAGVYTCLIAYKGADYKRITVKVNAEAAAKEAAAKDIQMTQSPSSLSASVGDRVTMTCSASSSVSYMNWYQQKPGKAPKRWIYDSSKLASGVPARFSGSGSGTDYTLTISSLQPEDFATYYCQQWSRNPPTFGGGTKLQITRTVAAPSVFIFPPSDEQLKSGTASVVCLLNNFYPREAKVQWKVDNALQSGNSQESVTEQDSKDSTYSLSSTLTLSKADYEKHKVYACEVTHQGLSSPVTKSFNRGEC
chain: not shown
Consider B2, for which the EC50 in assay [1] is 5.3 nM; in assay [5] it was 5.8 nM. The “Fold wrt WT” value in [3] came out at 4.4 fold. Besides, the “Fold wrt v31931” value in assay [6] is 1 fold. The same molecule displayed an IC50 in assay [7] of 6 nM.

B3: Variant 30444: WT CTLA4:WT CD80 masked CD3 × Her2 Fab × scFv Fc, CTLA4 cleavable (not treated with uPa) (bispecific antibody, human IgG1, kappa, L234A L235A)
heavy: not shown
light: MHVAQPAVVLASSRGIASFVCEYASPGKATEVRVTVLRQADSQVTEVCAATYMMGNELTFLDDSICTGTSSGNQVNLTIQGLRAMDTGLYICKVELMYPPPYYLGIGNGTQIYVIDPEEAAAKEAAAKMSGRSANADIQMTQSPSSLSASVGDRVTMTCSASSSVSYMNWYQQKPGKAPKRWIYDSSKLASGVPARFSGSGSGTDYTLTISSLQPEDFATYYCQQWSRNPPTFGGGTKLQITRTVAAPSVFIFPPSDEQLKSGTASVVCLLNNFYPREAKVQWKVDNALQSGNSQESVTEQDSKDSTYSLSSTLTLSKADYEKHKVYACEVTHQGLSSPVTKSFNRGEC
chain: not shown
notes: also called v30444
Turning to B3, in assay [8], the midpoint of the response, the EC50, lay at 100 nM. Moreover, the “fold decrease of target binding” value in assay [9] was around 80 fold. For the same molecule, the “Fold wrt WT” value in assay [10] is 83 fold.

B4: Variant 30430 treated with uPa (+uPa): PD-L1 moiety cleaved from the light chain, HA PD-1 left on the heavy chain (bispecific antibody)
chain 1: not shown
chain 2: SANADIQMTQSPSSLSASVGDRVTMTCSASSSVSYMNWYQQKPGKAPKRWIYDSSKLASGVPARFSGSGSGTDYTLTISSLQPEDFATYYCQQWSRNPPTFGGGTKLQITRTVAAPSVFIFPPSDEQLKSGTASVVCLLNNFYPREAKVQWKVDNALQSGNSQESVTEQDSKDSTYSLSSTLTLSKADYEKHKVYACEVTHQGLSSPVTKSFNRGEC
chain 3: not shown
B4: the EC50 was 6.7 nM in [1], 6.7 nM in assay [8], 67 nM in assay [11] and 18 nM in assay [14]. In assay [12], the “fold of the unmasked control after uPa treatment” value was 29 fold. Besides, the “fold of the one-sided mask control 31929” value in assay [13] turned out to be 53 fold. Moreover, the “Fold wrt WT” value in assay [3] and in [10] was 5.5 fold each time.

The record behind these values is patent publication US20230331809A1 (Zymeworks, published 2023).
